Drawing on publication PMC9608196, this text covers stoichiometry N and stoichiometry N (gp25 per gp24 (3:3)) for 3 substances.

The target in assay [1] is His6-tagged full-length gp25 (tail fiber chaperone of myocyanophage Pam3), expressed alone (cyanophage Pam3). In words: SEC; individually expressed His-gp24 or His-gp25; Superdex 200 Increase 10/300 column; peaks analysed by SDS-PAGE. In general terms: Size exclusion chromatography separates by hydrodynamic size, large species first.
The target in assay [2] is His6-tagged full-length gp24 (tail fiber protein of myocyanophage Pam3) (cyanophage Pam3). In words: SEC-MALS; Superdex 200 Increase 10/300 GL in 20 mM Tris-HCl pH 7.0, 100 mM NaCl, 7 mM beta-mercaptoethanol; 1 mg/mL, 100 uL.
Assay [3] shares this target. The assay is described as follows: SDS-PAGE of samples that were not boiled; purified protein treated with beta-mercaptoethanol, not boiled.
The target is the same in assay [4]. In words: SEC; individually expressed His-gp24 or His-gp25; Superdex 200 Increase 10/300 column; peaks analysed by SDS-PAGE.
Assay [5] has the same target. In words: SEC; His-gp24 co-expressed with untagged gp25 in E. coli, purified by Ni-NTA; Superdex 200 Increase 10/300 column; peaks analysed by SDS-PAGE.

On to “His6-tagged full-length gp25 (tail fiber chaperone of myocyanophage Pam3), expressed alone (natural protein)”, for which the stoichiometry N (in general, the number of molecules, sites or subunits per partner or assembly) in assay [1] was determined as 3.
“gp25 (tail fiber chaperone of myocyanophage Pam3), untagged, co-expressed with His-gp24 (natural protein)” had a stoichiometry N (gp25 per gp24 (3:3)) in assay [2] of 1.
As for “His6-tagged full-length gp24 (tail fiber protein of myocyanophage Pam3) (natural protein)”, the stoichiometry N in assay [3], in assay [4], in assay [2] and in assay [5] was 3 each time.
